From PMC11251181, “Crystal structure of MAGEA4 MHD-RAD18 R6BD reveals a flipped binding mode compared to AlphaFold2 prediction” (The EMBO Journal, 2024) come the findings set out here.

In this experiment the target is T1, MAGEA4 MAGE homology domain (MHD), residues D101-V317 (human, UniProt P43358 101-317).
T1 construct: MAGEA4, human, MAGE homology domain, residues D101-V317; His6 tag removed with TEV protease; also called MAGEA4 MHD; MAGEA4-MHD; source: E. coli BL21 (DE3), purified (Ni-NTA, TEV cleavage, Superdex-75 SEC); not shown: His6, N-terminal, cleaved
T1 sequence (looked up): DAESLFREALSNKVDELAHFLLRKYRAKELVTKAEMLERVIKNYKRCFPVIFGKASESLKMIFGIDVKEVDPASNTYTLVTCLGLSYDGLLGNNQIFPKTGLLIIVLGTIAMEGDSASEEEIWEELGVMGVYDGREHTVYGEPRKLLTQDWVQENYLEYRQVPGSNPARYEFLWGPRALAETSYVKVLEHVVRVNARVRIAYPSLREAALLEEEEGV
The experiment is described as follows: crystal structure; MAGEA4 MHD (10.3 mg/mL) incubated on ice with a 1:2 molar ratio of RAD18 R6BD in 20 mM Tris HCl pH 7.5, 200 mM NaCl, 1 mM TCEP; sitting drop vapor diffusion; 2.58 Å. The settings on record: both partners purified.

No end group written: not given here.

B1: RAD18 RAD6-binding domain (R6BD) peptide, residues H339-G366 (peptide, UniProt Q9NS91 339-366, looked up)
peptide: HSKYRKKHKSEFQLLVDQARKGYKKIAG-NH2
notes: also called RAD18 R6BD; source: synthetic peptide (UNC Chapel Hill High-Throughput Peptide Synthesis and Array Facility)
As for B1, the binding result is “binds”.
